Reference: patent US20190202901A1 (PIERRE FABRE MEDICAMENT, published 2019)
Substitutions are numbered along the chain they refer to. Like-named read-outs stand apart in the source and are kept apart here. Each block holds one binder with its values, some of them ahead of it.

Tests used:
[1] = target: T1, human IGF-1R, native, on cells (MCF-7, hIGF-1R transfected cells, tumor sections, primary normal cells) (human, UniProt P08069 31-1367); assay: cell-based or functional assay
[2] = target: monkey IGF-1R on COS-7 cells (monkey (African green monkey)); assay: cell-based or functional assay
[3] = target: T2, recombinant human Insulin Receptor protein (R&D Systems, Cat 1544-IR/CF) (human, UniProt P06213-2 28-944); assay: direct ELISA, coated rhIR
T2 construct: Bought protein coated on ELISA plates; also called rhIR; rh Insulin R
Protocol: In all direct ELISAs, proteins of interest were immobilized (1 μg/ml) to the bottom of each well. After saturation, hybridoma supernatants were added to the wells. After a 1-hour incubation period and a washing step, a solution of goat anti-mouse IgG—HRP labelled polyclonal antibody was used for detection, prior to the addition of the TMB substrate. The reaction was stopped with a 1M H₂SO₄ solution before reading the OD with a spectrophotometer at a 450 nm wavelength.

[4] = target: T1, human IGF-1R, native, on cells (MCF-7, …); assay: cell-based or functional assay; remark: listed apart in the source
[5] = target: T3, soluble recombinant human IGF-1R hetero-tetramer with C-terminal 10-His tag (R&D Systems 305-GR-50) (human, UniProt P08069 31-736; P08069 741-932); assay: SPR Biacore X100, His-captured soluble h-IGF-1R (about 600 RU), mean of 4 experiments
T3 construct: domain: alpha chain;domain: extracellular domain of the beta chain; Captured on an anti-His antibody chip; also called recombinant soluble human-IGF-1R; h-IGF-1R
Protocol: (§1) The dissociation constants (KD) of the binding of the antibodies on a recombinant soluble human-IGF-1R were defined by the ratio between the dissociation rate (koff) and the association rate (kₒₙ). The kinetic experiments were run on a Biacore X100 device using a CM5 sensor chip activated by a mouse anti-Tag His monoclobnal antibody. Around 12000 RU of antibodies are chemically grafted on the carboxymethyldextan matrix using the amine kit chemistry.
(§2) The experiments were carried out at 25° C. with a flow rate of 30 μl/min using the HBS-EP+ buffer (GE Healthcare) as the running and sample dilution buffer.
(§3) The single cycle kinetic scheme was used to define the kinetic parameters of the binding of the anti-IGF-1R antibodies on a soluble recombinant human IGF-1R captured by its two C-terminal 10 Histidine-tag. [0637] 1—A solution of a soluble recombinant version of the human IGF-1R hetero-tetramere: 2a chains and the extracellular domains of 2β chains expressed with an additional C-terminal 10-His tag (R&D Systems catalogue number 305-GR-50) was injected during one minute on the second flowcell at a concentration of 10 μg/ml. […] [0638] 2—After the capture phase, either the running buffer was injected 5 times (90 s each injection) or a growing range of 5 concentrations of one of the six antibodies was injected (90 s each injection) on both flowcells. At the end of the fifth injection the running buffer was passed during 5 minutes in order to define the dissociation rate. [0639] 3—The surface was then generated with an injection of a 10 mM Glycine, HCl pH 1.5 buffer during 45 s.

[6] = target: T1, human IGF-1R, native, on cells (MCF-7, …); assay: cell-based or functional assay; remark: listed apart in the source
[7] = target: T1, human IGF-1R, native, on cells (MCF-7, …); assay: cell-based or functional assay; remark: listed apart in the source
[8] = target: T3, soluble recombinant human IGF-1R …; assay: SPR Biacore X100, Ln(2)/koff
Protocol: as §1, §2
as §3, with “At the end of the fifth injection the running buffer was passed during 5 minutes in order to define the dissociation rate. [0639] 3—The surface was then generated with an injection of a 10 mM Glycine, HCl pH 1.5 buffer during 45 s.” left out

[9] = target: T3, soluble recombinant human IGF-1R …; assay: SPR Biacore X100, His-captured recombinant human IGF-1R
Protocol: (§4) The recognition experiments were run on a Biacore X100 device using a CM5 sensor chip activated by an anti-Tag His antibody (His capture kit GE Healthcare catalogue number 28-9950-56). More than 11000 RU of antibodies are chemically grafted on the carboxymethyldextan matrix using the amine kit chemistry. The experiments were carried out at 25° C. with a flow rate of 30 μl/min using the HBS-EP buffer (GE Healthcare) as the running and sample dilution buffer.
(§5) A solution of a soluble recombinant version of the IGF-1R hetero-tetramere composed of 2a chains and the extracellular domains of 2β chains expressed with an additional C-terminal 10-His tag, based either on the sequence of the human (R&D Systems catalogue number 305-GR-50) or of the one of cynomolgus (produced in house) was injected 1 minute on the second flowcell at a dilution defined to capture around 160 RU of antigen. […] At the end of the fifth injection the running buffer was passed in order to define the dissociation rate.
(§6) The resulting sensorgrams were analysed using the Biaevaluation software with a 1:1 model. […] The quality of the fitting was assessed by a Chi2/Rmax ratio lower than 0.05 RU.

[10] = target: T4, soluble recombinant cynomolgus IGF-1R hetero-tetramer with C-terminal 10-His tag (produced in house) (cynomolgus monkey); assay: SPR Biacore X100, His-captured recombinant cynomolgus IGF-1R
T4 construct: domain: alpha chain;domain: extracellular domain of the beta chain; Produced in house; also called Macaca IGF-1R; soluble monkey IGF-1R ECD
Protocol: as §4, §5, §6

[11] = target: T3, soluble recombinant human IGF-1R …; assay: SPR Biacore X100, single cycle kinetics, His-captured human IGF-1R (about 160 RU), 1:1 model
Protocol: as §4, §5, §6

T2 sequence (P06213 other isoform, or with tags, fused parts or gaps limits assumed): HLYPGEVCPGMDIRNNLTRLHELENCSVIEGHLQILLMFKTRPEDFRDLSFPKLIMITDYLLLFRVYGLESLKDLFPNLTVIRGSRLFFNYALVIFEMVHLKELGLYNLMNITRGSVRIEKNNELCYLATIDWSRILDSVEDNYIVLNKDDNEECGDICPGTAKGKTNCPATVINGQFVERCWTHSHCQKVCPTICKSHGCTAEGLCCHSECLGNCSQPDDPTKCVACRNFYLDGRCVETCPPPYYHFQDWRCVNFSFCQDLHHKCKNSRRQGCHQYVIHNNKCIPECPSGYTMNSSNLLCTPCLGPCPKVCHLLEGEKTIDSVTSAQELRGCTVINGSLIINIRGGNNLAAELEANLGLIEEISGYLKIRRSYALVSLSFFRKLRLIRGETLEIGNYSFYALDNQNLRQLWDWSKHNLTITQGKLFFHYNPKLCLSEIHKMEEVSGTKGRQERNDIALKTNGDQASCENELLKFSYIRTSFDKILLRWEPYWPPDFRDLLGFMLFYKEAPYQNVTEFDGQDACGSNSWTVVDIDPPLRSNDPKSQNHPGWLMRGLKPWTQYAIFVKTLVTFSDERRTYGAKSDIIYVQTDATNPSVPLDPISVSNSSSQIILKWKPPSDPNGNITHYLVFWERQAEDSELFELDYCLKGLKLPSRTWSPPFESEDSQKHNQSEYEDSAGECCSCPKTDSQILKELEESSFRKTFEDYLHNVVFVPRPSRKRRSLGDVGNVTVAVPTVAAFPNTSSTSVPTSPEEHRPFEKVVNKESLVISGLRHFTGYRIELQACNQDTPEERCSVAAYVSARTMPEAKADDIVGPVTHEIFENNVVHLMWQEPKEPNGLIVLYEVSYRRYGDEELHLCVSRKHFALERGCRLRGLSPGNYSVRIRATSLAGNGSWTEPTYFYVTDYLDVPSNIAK

B1: m212A11 (murine 212A11, hybridoma CNCM I-4773) (antibody, V domains shown)
VH: QVQLQQSGPELVKPGASVKMSCKASGYTFTSYYIHWVKQRPGQGLEWIGWIWPGDGSTKYNEKFKGKTTLTADKSSSTAYMFLSSLTSEDSAVYFCASPMITPNYAMDYWGQGASVTVSS
VL: DIQMTQTTSSLSASLGDRVTISCRASQDINKYLNWYQQQPDGTVKLLIYYTSRLHSGVPSRFSGRGSGTDYSLTISNLEQEDIATYFCQQGSTLPYTFGGGTKLEIK
decrease of IGF1-induced phosphorylation of hIGF-1R (MCF-7 cells) [1]: 80% | % internalisation (monkey IGF-1R) [2]: 73% | ΔMFI (monkey IGF-1R internalization) [2]: 83 MFI

B3: c212A11 (antibody, human IgG1, kappa, V domains shown)
VH: B1 VH
VL: DIQMTQTTSSLSASLGDRVTISCRASQDINKYLNWYQQQPDGTVKLLIYYTSRLHSGVPSRFSGRGSGTDYSLTISNLEQEDIATYFCQQGSTLPYTFGGGTKLEIKR
notes: also called chimeric 212A11
phosphorylation of hIGF-1R, % of phosphorylation induced by IGF-1 (MCF-7 cells, 10 µg/ml) [1]: < 10% | ΔMFI (MCF-7, 10 µg/ml, 4 h) [4]: 322 MFI | % internalisation (monkey IGF-1R) [2]: 75% | ΔMFI (monkey IGF-1R internalization) [2]: 98 MFI | Kd [5]: ~0.03 nM

B5: c214F8 (antibody, human IgG1, kappa)
heavy: not shown
light: DIQMTQTTSSLSASLGDRVTFSCRASQDISKYLNWYQQQPDGTIKLLIYYTSRLHSGVPSRFSGRGSGTDYSLTITNLEQEDIATYFCQQGSALPYTFGGGTKLEIKRTVAAPSVFIFPPSDEQLKSGTASVVCLLNNFYPREAKVQWKVDNALQSGNSQESVTEQDSKDSTYSLSSTLTLSKADYEKHKVYACEVTHQGLSSPVTKSFNRGEC
notes: also called chimeric 214F8
phosphorylation of hIGF-1R, % of phosphorylation induced by IGF-1 (MCF-7 cells, 10 µg/ml) [1]: < 10% | ΔMFI (MCF-7, 10 µg/ml, 4 h) [4]: 403 MFI | % internalisation (monkey IGF-1R) [2]: 72% | ΔMFI (monkey IGF-1R internalization) [2]: 98 MFI | Kd [5]: ~0.03 nM

B11: c213B10 (antibody, human IgG1, kappa)
heavy: not shown
light: B5 light with F21I
notes: also called chimeric 213B10
phosphorylation of hIGF-1R, % of phosphorylation induced by IGF-1 (MCF-7 cells, 10 µg/ml) [1]: < 10% | ΔMFI (MCF-7, 10 µg/ml, 4 h) [4]: 369 MFI | % internalisation (monkey IGF-1R) [2]: 73% | ΔMFI (monkey IGF-1R internalization) [2]: 101 MFI | Kd [5]: ~0.03 nM

B12: c208F2 (antibody, human IgG1, kappa, V domains shown)
VH: B1 VH with H35Y, I48L, G66D, S77N
VL: B3 VL with N30S, V44I, L78V
notes: also called chimeric 208F2; chimeric form of the 208F2 second IGF-1R antibody
phosphorylation of hIGF-1R, % of phosphorylation induced by IGF-1 (MCF-7 cells, 10 µg/ml) [1]: < 10% | ΔMFI (MCF-7, 10 µg/ml, 4 h) [4]: 288 MFI | % internalisation (monkey IGF-1R) [2]: 67% | ΔMFI (monkey IGF-1R internalization) [2]: 52 MFI | % internalization (MCF-7, 10 µg/ml, 4 h) [7]: 82% | ΔMFI (MCF-7, 10 µg/ml, 4 h) [7]: 278 MFI | half-life of the complex [8]: 2 to 3 h | Kd [9]: ~0.2 nM | Kd [10]: ~0.2 nM | Kd [5]: ~0.075 nM | Kd [11]: 0.23 nM

Second part, the binder after the results:

binding result [3]: no binding (tested: 5 µg/ml)
B2: 816C12 (antibody, V domains shown)
VH: EVQLQQSGPELVKPGASVKMSCKASGHTFTSYVLHWMKRKPGQGLEWIGYINPHNDVTKYNENFKGKATLTSDKYSSTVYMEVSSLTSEDSAVYYCVSTAYYGNGRYFDVWGAGTTVTVSS
VL: B1 VL with K31N, Q39K, P59S, R65S, S92N, Y96W
notes: Murine monoclonal antibody from hybridoma CNCM I-4894; also called m816C12; I-4894

decrease of IGF1-induced phosphorylation of hIGF-1R (MCF-7 cells) [1]: 80% | MFI 37°C (MCF7 internalisation assay) [6]: 115 MFI | % internalisation (monkey IGF-1R) [2]: 74% | ΔMFI (monkey IGF-1R internalization) [2]: 84 MFI
B4: m213B10 (murine 213B10, hybridoma CNCM I-4774) (antibody, V domains shown)
VH: B1 VH with P9S, K63R
VL: B1 VL with N30S, V44I, S76T, T93A

decrease of IGF1-induced phosphorylation of hIGF-1R (MCF-7 cells) [1]: 80% | % internalisation (monkey IGF-1R) [2]: 71% | ΔMFI (monkey IGF-1R internalization) [2]: 80 MFI
B6: m219D6 (murine 219D6, hybridoma CNCM I-4736) (antibody, V domains shown)
VH: B1 VH with A16D, T28S, Y33F, A72T, S84N
VL: B1 VL with N30S

phosphorylation of hIGF-1R, % of phosphorylation induced by IGF-1 (MCF-7 cells, 10 µg/ml) [1]: < 10% | ΔMFI (MCF-7, 10 µg/ml, 4 h) [4]: 353 MFI | % internalisation (monkey IGF-1R) [2]: 74% | ΔMFI (monkey IGF-1R internalization) [2]: 102 MFI | Kd [5]: ~0.03 nM
B7: c219D6 (antibody, human IgG1, kappa, V domains shown)
VH: B1 VH with A16D, T28S, Y33F, A72T, S84N
VL: B3 VL with N30S
notes: also called chimeric 219D6

decrease of IGF1-induced phosphorylation of hIGF-1R (MCF-7 cells) [1]: 80% | MFI 37°C (MCF7 internalisation assay) [6]: 111 MFI | % internalisation (monkey IGF-1R) [2]: 71% | ΔMFI (monkey IGF-1R internalization) [2]: 76 MFI
B8: m214F8 (murine 214F8, hybridoma CNCM I-4775) (antibody, V domains shown)
VH: B1 VH with P9S, M20L, K63R
VL: B1 VL with I21F, N30S, V44I, S76T, T93A

decrease of IGF1-induced phosphorylation of hIGF-1R (MCF-7 cells) [1]: 80% | MFI 37°C (MCF7 internalisation assay) [6]: 94 MFI | % internalisation (monkey IGF-1R) [2]: 74% | ΔMFI (monkey IGF-1R internalization) [2]: 53 MFI | % internalization (MCF-7, 10 µg/ml, 4 h) [7]: 88% | ΔMFI (MCF-7, 10 µg/ml, 4 h) [7]: 294 MFI
B9: m208F2 (murine 208F2, hybridoma CNCM I-4757) (antibody, V domains shown)
VH: B1 VH with H35Y, I48L, G66D, S77N
VL: B1 VL with N30S, V44I, L78V

binding result [3]: no binding (tested: 5 µg/ml)
B10: 810D12 (antibody, V domains shown)
VH: EVQLQQSGPELVKPGASVKMSCKASGHTFTSYMLHWVKQKPGQGLEWLGFINPYNDVTKYNENFKGKATLTSDKSSSTAYMELNSLTSEDSAVYFCVTTAYYGNGRYFDVWGAGTTVTVSS
VL: DIQMTQTTSSLSASLGDRVTISCRASQDITNYLTWYQQKPDGTVKVLIYYTSRLYSGVPSRFSGSGSGSDYSLTINNLEQEDIATYFCQQGYSLPWTFGGGTKLEIK
notes: Murine monoclonal antibody from hybridoma CNCM I-4893; also called m810D12; I-4893
